Assay results taken from publication PMC2756588.

T1: Abp1, P15891
T1 sequence (P15891 535-592, looked up): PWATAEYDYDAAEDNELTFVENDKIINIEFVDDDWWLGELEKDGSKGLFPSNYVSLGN

T2: Bbc1, P47068
T2 sequence (P47068 1-78, looked up): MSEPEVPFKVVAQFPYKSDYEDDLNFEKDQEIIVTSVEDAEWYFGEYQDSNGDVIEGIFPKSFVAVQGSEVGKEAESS

T3: Boi1, P38041
T3 sequence (P38041 1-86, looked up): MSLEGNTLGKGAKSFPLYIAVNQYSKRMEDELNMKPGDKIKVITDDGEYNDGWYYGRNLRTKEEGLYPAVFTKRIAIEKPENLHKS

T4: Boi2, P39969
T4 sequence (P39969 32-116, looked up): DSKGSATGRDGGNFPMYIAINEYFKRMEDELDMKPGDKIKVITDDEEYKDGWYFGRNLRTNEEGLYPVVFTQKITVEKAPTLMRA

T5: Bud14, P27637
T5 sequence (P27637 247-328, looked up): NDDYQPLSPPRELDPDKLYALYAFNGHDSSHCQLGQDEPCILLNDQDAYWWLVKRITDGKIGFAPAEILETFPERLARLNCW

T6: Bzz1-1, P38822
T6 sequence (P38822 478-572, looked up): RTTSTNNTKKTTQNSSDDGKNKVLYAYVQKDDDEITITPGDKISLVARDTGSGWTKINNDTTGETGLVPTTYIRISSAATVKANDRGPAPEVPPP

T7: Bzz1-2, P38822
T7 sequence (P38822 568-633, looked up): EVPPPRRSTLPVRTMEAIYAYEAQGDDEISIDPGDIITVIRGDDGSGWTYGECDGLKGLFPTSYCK

T8: Cdc25, P04821
T8 sequence (P04821 50-136, looked up): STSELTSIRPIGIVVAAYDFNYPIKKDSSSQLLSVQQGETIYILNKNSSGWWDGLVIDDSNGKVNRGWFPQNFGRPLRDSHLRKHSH

T9: Cyk3, Q07533
T9 sequence (Q07533 1-83, looked up): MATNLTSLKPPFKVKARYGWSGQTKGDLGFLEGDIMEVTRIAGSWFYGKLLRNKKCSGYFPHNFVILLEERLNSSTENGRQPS

T10: Fus1, P11710
T10 sequence (P11710 432-512, looked up): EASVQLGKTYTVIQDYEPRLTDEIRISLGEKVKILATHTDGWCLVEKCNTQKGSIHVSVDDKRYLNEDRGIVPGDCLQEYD

T11: Hof1, Q05080
T11 sequence (Q05080 590-669, looked up): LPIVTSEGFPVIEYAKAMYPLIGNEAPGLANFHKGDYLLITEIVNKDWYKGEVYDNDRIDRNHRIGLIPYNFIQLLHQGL

T12: Hse1, P38753
T12 sequence (P38753 208-285, looked up): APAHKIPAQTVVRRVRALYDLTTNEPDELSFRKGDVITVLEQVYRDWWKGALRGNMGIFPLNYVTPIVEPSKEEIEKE

T13: Lsb1, P53281
T13 sequence (P53281 45-122, looked up): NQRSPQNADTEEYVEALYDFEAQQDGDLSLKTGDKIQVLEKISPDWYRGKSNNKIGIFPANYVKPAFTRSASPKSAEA

T14: Lsb3, P43603
T14 sequence (P43603 385-451, looked up): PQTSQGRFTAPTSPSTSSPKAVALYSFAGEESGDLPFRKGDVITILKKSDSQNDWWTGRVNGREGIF

T15: Lsb4, P32793
T15 sequence (P32793 402-468, looked up): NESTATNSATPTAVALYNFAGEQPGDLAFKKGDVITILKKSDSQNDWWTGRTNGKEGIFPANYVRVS

T16: Myo5, Q04439
T16 sequence (Q04439 1072-1160, looked up): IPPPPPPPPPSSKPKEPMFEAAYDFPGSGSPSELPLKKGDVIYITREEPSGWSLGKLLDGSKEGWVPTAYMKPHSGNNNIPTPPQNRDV

T17: Nbp2, Q12163
T17 sequence (Q12163 103-180, looked up): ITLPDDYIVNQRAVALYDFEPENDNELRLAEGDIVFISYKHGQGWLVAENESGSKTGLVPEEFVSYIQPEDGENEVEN

T18: Pex13, P80667
T18 sequence (P80667 295-386, looked up): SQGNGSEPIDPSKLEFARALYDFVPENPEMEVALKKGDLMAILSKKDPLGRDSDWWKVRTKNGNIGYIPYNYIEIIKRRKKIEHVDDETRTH

T19: Pin3, Q06449
T19 sequence (Q06449 53-122, looked up): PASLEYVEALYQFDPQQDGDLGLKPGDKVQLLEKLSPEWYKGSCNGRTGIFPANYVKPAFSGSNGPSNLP

T20: Sla1-2, P32790
T20 sequence (P32790 60-140, looked up): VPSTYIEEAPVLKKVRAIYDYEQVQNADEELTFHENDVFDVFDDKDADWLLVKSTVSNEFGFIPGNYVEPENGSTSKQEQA

T21: Sla1-3, P32790
T21 sequence (P32790 344-424, looked up): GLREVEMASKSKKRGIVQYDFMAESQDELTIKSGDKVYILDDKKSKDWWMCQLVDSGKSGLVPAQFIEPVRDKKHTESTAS

B1: unnamed (peptide)
chain: IFLRISINFPLNYPN
B2: unnamed (peptide)
chain: GDHPKGPPPPPPPPD
B3: unnamed (peptide)
chain: TPEIPPPLPPKIMVH
B4: unnamed (peptide)
chain: RHLKLVPSTPMDIPW

target: T1, Abp1, P15891; assay: SPOT array; conditions: median of control spots 935

Row | SPOT intensity | Binder
1 | 212 | B1
2 | 0 | B2
3 | 2 | B3
4 | 37 | B4

target: T2, Bbc1, P47068; assay: SPOT array; conditions: median of control spots 796

Row | SPOT intensity | Binder
5 | 192 | B1
6 | 0 | B2
7 | 0 | B3
8 | 1 | B4

target: Bem1-1, P29366; assay: SPOT array; conditions: median of control spots 4282
Sequence (P29366 55-141): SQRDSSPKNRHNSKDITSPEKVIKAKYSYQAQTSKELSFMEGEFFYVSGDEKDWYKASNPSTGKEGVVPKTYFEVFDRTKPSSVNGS

Row | SPOT intensity | Binder
9 | 8 | B1
10 | 0 | B2
11 | 0 | B3
12 | 189 | B4

target: Bem1-2, P29366; assay: SPOT array; conditions: median of control spots 4347
Sequence (P29366 139-227): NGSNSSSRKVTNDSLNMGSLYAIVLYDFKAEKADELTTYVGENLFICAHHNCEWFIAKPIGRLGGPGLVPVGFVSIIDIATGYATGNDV

Row | SPOT intensity | Binder
13 | 3 | B1
14 | 0 | B2
15 | 0 | B3
16 | 90 | B4

target: T3, Boi1, P38041; assay: SPOT array; conditions: median of control spots 1162

Row | SPOT intensity | Binder
17 | 24 | B1
18 | 0 | B2
19 | 0 | B3
20 | 0 | B4

target: T4, Boi2, P39969; assay: SPOT array; conditions: median of control spots 1161

Row | SPOT intensity | Binder
21 | 3 | B1
22 | 0 | B2
23 | 0 | B3
24 | 0 | B4

target: T5, Bud14, P27637; assay: SPOT array; conditions: median of control spots 956

Row | SPOT intensity | Binder
25 | 18 | B1
26 | 1 | B2
27 | 0 | B3
28 | 8 | B4

target: T6, Bzz1-1, P38822; assay: SPOT array; conditions: median of control spots 4446

Row | SPOT intensity | Binder
29 | 6 | B1
30 | 331 | B2
31 | 0 | B3
32 | 6 | B4

target: T7, Bzz1-2, P38822; assay: SPOT array; conditions: median of control spots 4538

Row | SPOT intensity | Binder
33 | 70 | B1
34 | 0 | B2
35 | 0 | B3
36 | 411 | B4

target: T8, Cdc25, P04821; assay: SPOT array; conditions: median of control spots 969

Row | SPOT intensity | Binder
37 | 91 | B1
38 | 0 | B2
39 | 2 | B3
40 | 14 | B4

target: T9, Cyk3, Q07533; assay: SPOT array; conditions: median of control spots 1451

Row | SPOT intensity | Binder
41 | 5 | B1
42 | 0 | B2
43 | 0 | B3
44 | 0 | B4

target: T10, Fus1, P11710; assay: SPOT array; conditions: median of control spots 1200

Row | SPOT intensity | Binder
45 | 655 | B1
46 | 0 | B2
47 | 0 | B3
48 | 1430 | B4

target: GST; assay: SPOT array; conditions: median of control spots 978

Row | SPOT intensity | Binder
49 | 0 | B1
50 | 0 | B2
51 | 0 | B3
52 | 0 | B4

target: T11, Hof1, Q05080; assay: SPOT array; conditions: median of control spots 4086

Row | SPOT intensity | Binder
53 | 15 | B1
54 | 0 | B2
55 | 2240 | B3
56 | 59 | B4

target: T12, Hse1, P38753; assay: SPOT array; conditions: median of control spots 1727

Row | SPOT intensity | Binder
57 | 143 | B1
58 | 0 | B2
59 | 1540 | B3
60 | 134 | B4

target: T13, Lsb1, P53281; assay: SPOT array; conditions: median of control spots 388

Row | SPOT intensity | Binder
61 | 71 | B1
62 | 0 | B2
63 | 0 | B3
64 | 14 | B4

target: T14, Lsb3, P43603; assay: SPOT array; conditions: median of control spots 406

Row | SPOT intensity | Binder
65 | 10 | B1
66 | 0 | B2
67 | 96 | B3
68 | 0 | B4

target: T15, Lsb4, P32793; assay: SPOT array; conditions: median of control spots 397

Row | SPOT intensity | Binder
69 | 14 | B1
70 | 0 | B2
71 | 42 | B3
72 | 6 | B4

target: Myo3, P36006; assay: SPOT array; conditions: median of control spots 468

Row | SPOT intensity | Binder
73 | 71 | B1
74 | 456 | B2
75 | 304 | B3
76 | 81 | B4

target: T16, Myo5, Q04439; assay: SPOT array; conditions: median of control spots 471

Row | SPOT intensity | Binder
77 | 15 | B1
78 | 262 | B2
79 | 87 | B3
80 | 10 | B4

target: T17, Nbp2, Q12163; assay: SPOT array; conditions: median of control spots 357

Row | SPOT intensity | Binder
81 | 74 | B1
82 | 1 | B2
83 | 0 | B3
84 | 3 | B4

target: T18, Pex13, P80667; assay: SPOT array; conditions: median of control spots 1341

Row | SPOT intensity | Binder
85 | 76 | B1
86 | 0 | B2
87 | 321 | B3
88 | 99 | B4

target: T19, Pin3, Q06449; assay: SPOT array; conditions: median of control spots 2171

Row | SPOT intensity | Binder
89 | 101 | B1
90 | 0 | B2
91 | 20 | B3
92 | 329 | B4

target: Rvs167, P39743; assay: SPOT array; conditions: median of control spots 2707
Sequence (P39743 419-482): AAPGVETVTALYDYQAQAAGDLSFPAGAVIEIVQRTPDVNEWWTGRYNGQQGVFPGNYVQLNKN

Row | SPOT intensity | Binder
93 | 1 | B1
94 | 0 | B2
95 | 0 | B3
96 | 43 | B4

target: Sho1, P40073; assay: SPOT array; conditions: median of control spots 1148
Sequence (P40073 287-367): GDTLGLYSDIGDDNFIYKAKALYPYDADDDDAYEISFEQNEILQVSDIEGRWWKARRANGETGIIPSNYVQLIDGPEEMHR

Row | SPOT intensity | Binder
97 | 134 | B1
98 | 0 | B2
99 | 52 | B3
100 | 72 | B4

target: T20, Sla1-2, P32790; assay: SPOT array; conditions: median of control spots 712

Row | SPOT intensity | Binder
101 | 12 | B1
102 | 0 | B2
103 | 0 | B3
104 | 3 | B4

target: T21, Sla1-3, P32790; assay: SPOT array; conditions: median of control spots 5475

Row | SPOT intensity | Binder
105 | 199 | B1
106 | 0 | B2
107 | 0 | B3
108 | 290 | B4
